15 molecules from patent publication US20240360227A1 can be followed below.

Assay [1] has as its target Recombinant human his-tagged IGF R extracellular domain protein (human) (UniProt P08069). Kind of assay: SPR, Ab captured via anti-huIgG Fc, pH 7.4. Background: Surface plasmon resonance follows binding to a sensor surface in real time, without labels.
The target is the same in assay [2]. Kind of assay: SPR, Ab captured via anti-huIgG Fc, dissociation at pH 6.

B1: VRDN-02027 (antibody, V domains shown)
VH: QVQLQESGPGLVKPSETLSLTCTVSGYSITGGYLWNWIRQPPGKGLEWIGYISYDGTNNYKPSLKDRVTISRDTSKNQFSLKLSSVTAADTAVYYCARYGRVFFHYWGQGTLVTVSS
VL: DIVMTQSPLSLPVTPGEPASISCRSSQSIVHSNGNTYLQWYLQKPGQSPQLLIYKVSNRLYGVPDRFSGSGSGTDFTLKISRVEAEDVGVYYCFQGSHVPWTFGQGTKVEIK
The term Kd denotes the free concentration of one partner at which half of the binding sites on the other are occupied at equilibrium, for simple one-to-one binding. For orientation: koff means a measure of how fast the partners let go of each other. A word on the kon: it is the rate constant with which the complex forms. For B1, in assay [1], the Kd is 6.73 nM, the koff is 0.000957 s⁻¹ and the kon came to 142000 M⁻¹ s⁻¹. Moreover, in assay [2], the Kd was 2.85 nM, the koff stood at 0.000121 s⁻¹ and the kon was 42600 M⁻¹ s⁻¹.

B2: VRDN-02003 (antibody, V domains shown)
VH: QVQLQESGPGLVKPSETLSLTCTVSGYHITGGYLWNWIRQPPGKGLEWIGYISYDGTNNYKPSLKDRVTISRDTSKNQFSLKLSSVTAADTAVYYCARYGRVFFDYWGQGTLVTVSS
VL: DIVMTQSPLSLPVTPGEPASISCRSSQSIVHSNGNTYLQWYLQKPGQSPQLLIYKVSNRLYGVPDRFSGSGSGTDFTLKISRVEAEDVGVYYCFQGSHVPWTFGQGTKVEIK
Take B2: in assay [1], the Kd amounted to 0.423 nM, the koff stood at 4.72e-05 s⁻¹ and the kon was determined as 112000 M⁻¹ s⁻¹. Besides, in assay [2], the dissociation constant (Kd) came out at 1 nM, the off-rate constant (koff) is 9.44e-05 s⁻¹ and the kon worked out at 94300 M⁻¹ s⁻¹.

B3: VRDN-02030 (antibody, V domains shown)
VH: QVQLQESGPGLVKPSETLSLTCTVSGYSITGGYLWNWIRQPPGKGLEWIGYISYDGTNNYKPSLKDRVTISRDTSKNQFSLKLSSVTAADTAVYYCARYGRVFFDYWGQGTLVTVSS
VL: DIVMTQSPLSLPVTPGEPASISCRHSQSIVHSNGNTYLQWYLQKPGQSPQLLIYKVSNRLYGVPDRFSGSGSGTDFTLKISRVEAEDVGVYYCFQGSHVPWTFGQGTKVEIK
Regarding B3, in assay [1], the Kd was 0.646 nM, the koff turned out to be 5.48e-05 s⁻¹ and the kon came out at 84800 M⁻¹ s⁻¹. For the same molecule, in assay [2], the Kd turned out to be 1.09 nM, the koff amounted to 9.65e-05 s⁻¹ and the kon is 88900 M⁻¹ s⁻¹.

B4: VRDN-02036 (antibody, V domains shown)
VH: QVQLQESGPGLVKPSETLSLTCTVSGYSITGGYLWNWIRQPPGKGLEWIGYISYDGTNNYKPSLKDRVTISRDTSKNQFSLKLSSVTAADTAVYYCARYGRVFFDYWGQGTLVTVSS
VL: DIVMTQSPLSLPVTPGEPASISCRSSQSIVHHNGNTYLQWYLQKPGQSPQLLIYKVSNRLYGVPDRFSGSGSGTDFTLKISRVEAEDVGVYYCFQGSHVPWTFGQGTKVEIK
For the molecule B4, in assay [1], the Kd was determined as 0.444 nM, the koff came to 4.42e-05 s⁻¹ and the kon was 99500 M⁻¹ s⁻¹. For the same molecule, in assay [2], the Kd was 1.08 nM, the koff is 0.000102 s⁻¹ and the association rate constant (kon) amounted to 94200 M⁻¹ s⁻¹.

B5: VRDN-02028 (antibody, V domains shown)
VH: QVQLQESGPGLVKPSETLSLTCTVSGYSITGGYLWNWIRQPPGKGLEWIGYISYDGTNNYKPSLKDRVTISRDTSKNQFSLKLSSVTAADTAVYYCARYGRVFFDHWGQGTLVTVSS
VL: DIVMTQSPLSLPVTPGEPASISCRSSQSIVHSNGNTYLQWYLQKPGQSPQLLIYKVSNRLYGVPDRFSGSGSGTDFTLKISRVEAEDVGVYYCFQGSHVPWTFGQGTKVEIK
As to B5, in assay [1], the Kd amounted to 0.525 nM, the koff worked out at 5.4e-05 s⁻¹ and the association rate constant (kon) was found to be 103000 M⁻¹ s⁻¹. In addition, in assay [2], the Kd came out at 1.11 nM, the koff is 0.000107 s⁻¹ and the kon was determined as 97000 M⁻¹ s⁻¹.

B6: VRDN-02032 (antibody, V domains shown)
VH: QVQLQESGPGLVKPSETLSLTCTVSGYSITGGYLWNWIRQPPGKGLEWIGYISYDGTNNYKPSLKDRVTISRDTSKNQFSLKLSSVTAADTAVYYCARYGRVFFDYWGQGTLVTVSS
VL: DIVMTQSPLSLPVTPGEPASISCRSSHSIVHSNGNTYLQWYLQKPGQSPQLLIYKVSNRLYGVPDRFSGSGSGTDFTLKISRVEAEDVGVYYCFQGSHVPWTFGQGTKVEIK
B6: in assay [1], the dissociation constant (Kd) was determined as 0.769 nM, the koff was determined as 7.16e-05 s⁻¹ and the kon came to 93100 M⁻¹ s⁻¹. In assay [2], the Kd stood at 0.998 nM, the koff is 9.61e-05 s⁻¹ and the kon is 96300 M⁻¹ s⁻¹.

B7: VRDN-02029 (antibody, V domains shown)
VH: QVQLQESGPGLVKPSETLSLTCTVSGYSITGGYLWNWIRQPPGKGLEWIGYISYDGTNNYKPSLKDRVTISRDTSKNQFSLKLSSVTAADTAVYYCARYGRVFFDYWGQGTLVTVSS
VL: DIVMTQSPLSLPVTPGEPASISCHSSQSIVHSNGNTYLQWYLQKPGQSPQLLIYKVSNRLYGVPDRFSGSGSGTDFTLKISRVEAEDVGVYYCFQGSHVPWTFGQGTKVEIK
On to B7, for which, in assay [1], the Kd came out at 0.599 nM, the koff worked out at 5.53e-05 s⁻¹ and the kon turned out to be 92400 M⁻¹ s⁻¹. Further, in assay [2], the Kd was 1.1 nM, the koff amounted to 9.38e-05 s⁻¹ and the kon was 85600 M⁻¹ s⁻¹.

B8: VRDN-02037 (antibody, V domains shown)
VH: QVQLQESGPGLVKPSETLSLTCTVSGYSITGGYLWNWIRQPPGKGLEWIGYISYDGTNNYKPSLKDRVTISRDTSKNQFSLKLSSVTAADTAVYYCARYGRVFFDYWGQGTLVTVSS
VL: DIVMTQSPLSLPVTPGEPASISCRSSQSIVHSHGNTYLQWYLQKPGQSPQLLIYKVSNRLYGVPDRFSGSGSGTDFTLKISRVEAEDVGVYYCFQGSHVPWTFGQGTKVEIK
With B8, in assay [1], the Kd amounted to 0.844 nM, the koff was found to be 6.43e-05 s⁻¹ and the kon was 76200 M⁻¹ s⁻¹. Besides, in assay [2], the Kd came to 1.44 nM, the koff amounted to 0.000101 s⁻¹ and the kon came out at 70000 M⁻¹ s⁻¹.

B9: VRDN-02039 (antibody, V domains shown)
VH: QVQLQESGPGLVKPSETLSLTCTVSGYSITGGYLWNWIRQPPGKGLEWIGYISYDGTNNYKPSLKDRVTISRDTSKNQFSLKLSSVTAADTAVYYCARYGRVFFDYWGQGTLVTVSS
VL: DIVMTQSPLSLPVTPGEPASISCRSSQSIVHSNGHTYLQWYLQKPGQSPQLLIYKVSNRLYGVPDRFSGSGSGTDFTLKISRVEAEDVGVYYCFQGSHVPWTFGQGTKVEIK
For B9, in assay [1], the Kd was found to be 0.586 nM, the dissociation rate constant (koff) turned out to be 5.26e-05 s⁻¹ and the kon is 89800 M⁻¹ s⁻¹. Further, in assay [2], the Kd stood at 1.36 nM, the koff was 0.000109 s⁻¹ and the kon is 79800 M⁻¹ s⁻¹.

B10: VRDN-02031 (antibody, V domains shown)
VH: QVQLQESGPGLVKPSETLSLTCTVSGYSITGGYLWNWIRQPPGKGLEWIGYISYDGTNNYKPSLKDRVTISRDTSKNQFSLKLSSVTAADTAVYYCARYGRVFFDYWGQGTLVTVSS
VL: DIVMTQSPLSLPVTPGEPASISCRSHQSIVHSNGNTYLQWYLQKPGQSPQLLIYKVSNRLYGVPDRFSGSGSGTDFTLKISRVEAEDVGVYYCFQGSHVPWTFGQGTKVEIK
In the case of B10, in assay [1], the Kd is 0.468 nM, the koff turned out to be 4.56e-05 s⁻¹ and the kon is 97300 M⁻¹ s⁻¹. Moreover, in assay [2], the Kd was 1.22 nM, the koff was determined as 0.000115 s⁻¹ and the kon was determined as 94400 M⁻¹ s⁻¹.

B11: VRDN-02033 (antibody, V domains shown)
VH: QVQLQESGPGLVKPSETLSLTCTVSGYSITGGYLWNWIRQPPGKGLEWIGYISYDGTNNYKPSLKDRVTISRDTSKNQFSLKLSSVTAADTAVYYCARYGRVFFDYWGQGTLVTVSS
VL: DIVMTQSPLSLPVTPGEPASISCRSSQHIVHSNGNTYLQWYLQKPGQSPQLLIYKVSNRLYGVPDRFSGSGSGTDFTLKISRVEAEDVGVYYCFQGSHVPWTFGQGTKVEIK
Take B11: in assay [1], the Kd was found to be 0.822 nM, the koff was found to be 8.1e-05 s⁻¹ and the kon turned out to be 98500 M⁻¹ s⁻¹. Also, in assay [2], the Kd stood at 1.19 nM, the koff was determined as 0.00011 s⁻¹ and the kon turned out to be 92700 M⁻¹ s⁻¹.

B12: VRDN-02034 (antibody, V domains shown)
VH: QVQLQESGPGLVKPSETLSLTCTVSGYSITGGYLWNWIRQPPGKGLEWIGYISYDGTNNYKPSLKDRVTISRDTSKNQFSLKLSSVTAADTAVYYCARYGRVFFDYWGQGTLVTVSS
VL: DIVMTQSPLSLPVTPGEPASISCRSSQSHVHSNGNTYLQWYLQKPGQSPQLLIYKVSNRLYGVPDRFSGSGSGTDFTLKISRVEAEDVGVYYCFQGSHVPWTFGQGTKVEIK
With B12, in assay [1], the Kd worked out at 1.03 nM, the koff was 0.000105 s⁻¹ and the kon came out at 101000 M⁻¹ s⁻¹. For the same molecule, in assay [2], the Kd stood at 1.26 nM, the koff is 0.000107 s⁻¹ and the kon came to 85000 M⁻¹ s⁻¹.

B13: VRDN-02035 (antibody, V domains shown)
VH: QVQLQESGPGLVKPSETLSLTCTVSGYSITGGYLWNWIRQPPGKGLEWIGYISYDGTNNYKPSLKDRVTISRDTSKNQFSLKLSSVTAADTAVYYCARYGRVFFDYWGQGTLVTVSS
VL: DIVMTQSPLSLPVTPGEPASISCRSSQSIHHSNGNTYLQWYLQKPGQSPQLLIYKVSNRLYGVPDRFSGSGSGTDFTLKISRVEAEDVGVYYCFQGSHVPWTFGQGTKVEIK
As for B13, in assay [1], the Kd stood at 0.646 nM, the koff was 6.32e-05 s⁻¹ and the kon was determined as 97800 M⁻¹ s⁻¹. For the same molecule, in assay [2], the Kd amounted to 1.22 nM, the koff came out at 0.000107 s⁻¹ and the kon is 87600 M⁻¹ s⁻¹.

B14: VRDN-02038 (antibody, V domains shown)
VH: QVQLQESGPGLVKPSETLSLTCTVSGYSITGGYLWNWIRQPPGKGLEWIGYISYDGTNNYKPSLKDRVTISRDTSKNQFSLKLSSVTAADTAVYYCARYGRVFFDYWGQGTLVTVSS
VL: DIVMTQSPLSLPVTPGEPASISCRSSQSIVHSNHNTYLQWYLQKPGQSPQLLIYKVSNRLYGVPDRFSGSGSGTDFTLKISRVEAEDVGVYYCFQGSHVPWTFGQGTKVEIK
For the molecule B14, in assay [1], the Kd came out at 0.649 nM, the koff was 5.36e-05 s⁻¹ and the kon came out at 82600 M⁻¹ s⁻¹. In addition, in assay [2], the Kd was 1.31 nM, the koff stood at 0.000111 s⁻¹ and the kon stood at 84800 M⁻¹ s⁻¹.

B15: VRDN-02040 (antibody, V domains shown)
VH: QVQLQESGPGLVKPSETLSLTCTVSGYSITGGYLWNWIRQPPGKGLEWIGYISYDGTNNYKPSLKDRVTISRDTSKNQFSLKLSSVTAADTAVYYCARYGRVFFDYWGQGTLVTVSS
VL: DIVMTQSPLSLPVTPGEPASISCRSSQSIVHSNGNHYLQWYLQKPGQSPQLLIYKVSNRLYGVPDRFSGSGSGTDFTLKISRVEAEDVGVYYCFQGSHVPWTFGQGTKVEIK
For the molecule B15, in assay [1], the Kd is 1.22 nM, the koff is 0.000104 s⁻¹ and the on-rate constant (kon) amounted to 85400 M⁻¹ s⁻¹. Besides, in assay [2], the Kd came to 1.04 nM, the koff was found to be 9.07e-05 s⁻¹ and the kon worked out at 87000 M⁻¹ s⁻¹.
